The text below walks through data of patent US11891445 (ABL BIO, dated 2024).

Numbering of substitutions follows the chain as printed. Names may count otherwise.

T1: recombinant human B7-H3 protein with a histidine tag linked to the C terminal (2318-B3/CF, R&D Systems) (human) (UniProt Q5ZPR3)
T1 sequence (looked up): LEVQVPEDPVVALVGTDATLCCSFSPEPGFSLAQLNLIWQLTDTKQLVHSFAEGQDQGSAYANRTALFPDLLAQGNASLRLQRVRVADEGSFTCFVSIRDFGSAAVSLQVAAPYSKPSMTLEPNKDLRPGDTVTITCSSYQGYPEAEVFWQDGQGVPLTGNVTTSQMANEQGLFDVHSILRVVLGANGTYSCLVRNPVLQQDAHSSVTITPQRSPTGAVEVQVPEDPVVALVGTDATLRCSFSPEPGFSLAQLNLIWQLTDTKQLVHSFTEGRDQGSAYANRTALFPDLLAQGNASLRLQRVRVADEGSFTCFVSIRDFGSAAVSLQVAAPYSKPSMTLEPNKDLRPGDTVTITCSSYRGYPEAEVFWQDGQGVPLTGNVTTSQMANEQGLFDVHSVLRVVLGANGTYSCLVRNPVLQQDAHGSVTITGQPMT

T2: recombinant human B7-H3 protein (bought antigen used for ELISA analysis and T cell activity analysis) (human, UniProt Q5ZPR3 29-461)
T2 construct: range 1-461; also called extracellular domain (ECD) of B7-H3 protein; not shown: C-terminal histidine tag or Fc region of human IgG1 (Sino Biological 11188-H02H)
T2 sequence (looked up): T1 sequence (looked up)

B1: anti-B7-H3 scFv clone B5 (soluble monoclonal scFv) (scFv, part only; not given: linker, domain order and HA tag, V domains shown, not shown: another chain or arm of the molecule; small tags and cut ends)
VH: EVQLLESGGGLVQPGGSLRLSCAASGFTFSDYAMSWVRQAPGKGLEWVSSISSGSGSIYYADSVKGRFTISRDNSKNTLYLQMNSLRAEDTAVYYCAKNLIPLDYWGQGTLVTVSS
VL: QSVLTQPPSASGTPGQRVTISCSGSSSNIGSNAVSWYQQLPGTAPKLLIYYNSHRPSGVPDRFSGSKSGTSASLAISGLRSEDEADYYCGSWDASLNAYVFGGGTKLTVL
B2: anti-B7-H3 scFv clone C4I (soluble monoclonal scFv) (scFv, part only; not given: linker, domain order and HA tag, V domains shown, not shown: another chain or arm of the molecule; small tags and cut ends)
VH: B1 VH with D31G, A33Y, S50L, S53P, G54S, N99G, I101T, P102K, L103F
VL: B1 VL with S23T, A33D, Y51A, A94D, N97S, A98G
B3: anti-B7-H3 scFv clone D8G M1 (soluble monoclonal scFv) (scFv, part only; not given: linker, domain order and HA tag, V domains shown, not shown: another chain or arm of the molecule; small tags and cut ends)
VH: EVQLLESGGGLVQPGGSLRLSCAASGFTFSSYSMSWVRQAPGKGLEWVSGIYSDASNTYYADSVKGRFTISRDNSKNTLYLQMNSLRAEDTAVYYCAKMLHRFDYWGQGTLVTVSS
VL: B1 VL with A33S, S35T, Y51A, N52D, H54Q, S91T, A94S
B4: anti-B7-H3 scFv clone D8G (soluble monoclonal scFv) (scFv, part only; not given: linker, domain order and HA tag, V domains shown, not shown: another chain or arm of the molecule; small tags and cut ends)
VH: B3 VH with A55G
VL: B1 VL with A33S, S35T, Y51A, N52D, H54Q, S91T, A94S
B5: anti-B7-H3 scFv clone F6V (soluble monoclonal scFv) (scFv, part only; not given: linker, domain order and HA tag, V domains shown, not shown: another chain or arm of the molecule; small tags and cut ends)
VH: EVQLLESGGGLVQPGGSLRLSCAASGFTFSDYAMSWVRQAPGKGLEWVSGISPGGSNTYYADSVKGRFTISRDNSKNTLYLQMNSLRAEDTAVYYCAKDAWIARLLLFDYWGQGTLVTVSS
VL: B1 VL with S35T, S53N, H54K, S91T, A94D, N97S, A98G
B6: anti-B7-H3 scFv clone D8G M3 (soluble monoclonal scFv) (scFv, part only; not given: linker, domain order and HA tag, V domains shown, not shown: another chain or arm of the molecule; small tags and cut ends)
VH: B3 VH
VL: B1 VL with A33S, S35T, Y51A, N52D, S53V, H54Q, S91T, A94S
B7: anti-B7-H3 antibody D8G M1 (full IgG form) (antibody, V domains shown)
VH: B3 VH
VL: QSVLTQPPSASGTPGQRVTISCSGSSSNIGSNSVTWYQQLPGTAPKLLIYADSQRPSGVPDRFSGSKSGTSASLAISGLRSEDEADYYCGTWDSSLNAYVFGGGTKLTVLG
B8: anti-B7-H3 antibody D8G M3 (full IgG form) (antibody, V domains shown)
VH: B3 VH
VL: B7 VL with S53V

The term EC50 (read off the curve) denotes the concentration needed to bring the measured effect to its halfway point.

For the first test, the target named is T1, recombinant human B7-H3 protein with a histidine tag linked to the C terminal (2318-B3/CF, R&D Systems) (human). The test can be described thus: ELISA, soluble scFv on coated B7-H3-His 100 ng per well, anti-HA HRP.
On to B1, for which the absorbance at 450 nm is 1.
On to B2, for which the absorbance at 450 nm amounted to 1.
For the molecule B3, the absorbance at 450 nm turned out to be 1.
As for B4, the absorbance at 450 nm turned out to be 1.
Still for that read-out and setting: the result for B5 reads 1; that for B6, 1.

Another test deals with T2, recombinant human B7-H3 protein (bought …). The test can be described thus: ELISA on plate-coated recombinant human B7-H3. The method, then:
Specifically, after diluting the recombinant human B7-H3 protein at a concentration of 1 µg/ml and putting it into a 96-well plate (Nunc-Immuno Plates, NUNC) in 100 µl per well, it was reacted at 4° C. for 16 hrs for coating. The recombinant human B7-H3 protein used in Example 1 was used here.
Then, after removing the protein and washing it with PBST, a PBS buffer comprising 1% BSA (bovine serum albumin) was put at 200 µl per well and it was reacted at 37° C. for 2 hrs to block non-specific binding. Then, after diluting anti-B7-H3 antibodies prepared in Example 2 at a concentration of 10 µg/ml on the 96-well plate, 100 µl was put in each well and it was reacted at 37° C. for 1 hr. Then after it was washed with PBST. In order to detect antibodies bound to human B7-H3, HRP-connected anti-human IgG F(ab')2 antibody (Goat anti-Human IgG F(ab')2 Cross-Adsorbed Secondary Antibody, HRP, Pierce, 31414) was diluted by 1:10,000 in PBS comprising 1% bovine serum albumin (BSA), and 100 µl was put per well and it was reacted at 37° C. for about 1 hr. After washing it with PBST again, TMB (Tetramethylbenzidine, Sigma, T0440) 100 µl was put to develop color. After reacting it at RT for 5-10 min, 50 µl of 1N H_2SO_4 was put to finish the reaction, and the absorbance at 450 nm and 650 nm was measured by using a micro plate reader (molecular device).
In general terms: In an ELISA, binding on a coated surface is turned into a signal by an enzyme label.
As for B7, the concentration for a half-maximal effect (EC50 (read off the curve)) is about 0.02 nM.
As for B8, the concentration giving a half-maximal response (EC50 (read off the curve)) is about 0.02 nM.
